# Results published in IntAct's records for PubMed 11854419.
# B1: COP9 signalosome complex subunit 1 (Arabidopsis thaliana (Mouse-ear cress)), P45432 (parent)
# chain: MERDEEASGPMMEMCTNGGEETSNRRPIISGEPLDIEAYAALYKGRTKIMRLLFIANHCGGNHALQFDALRMAYDEIKKGENTQLFREVVNKIGNRLGEKYGMDLAWCEAVDRRAEQKKVKLENELSSYRTNLIKESIRMGYNDFGDFYYACGMLGDAFKNYIRTRDYCTTTKHIIHMCMNAILVSIEMGQFTHVTSYVNKAEQNPETLEPMVNAKLRCASGLAHLELKKYKLAARKFLDVNPELGNSYNEVIAPQDIATYGGLCALASFDRSELKQKVIDNINFRNFLELVPDVRELINDFYSSRYASCLEYLASLKSNLLLDIHLHDHVDTLYDQIRKKALIQYTLPFVSVDLSRMADAFKTSVSGLEKELEALITDNQIQARIDSHNKILYARHADQRNATFQKVLQMGNEFDRDVRAMLLRANLLKHEYHARSARKL
# partner: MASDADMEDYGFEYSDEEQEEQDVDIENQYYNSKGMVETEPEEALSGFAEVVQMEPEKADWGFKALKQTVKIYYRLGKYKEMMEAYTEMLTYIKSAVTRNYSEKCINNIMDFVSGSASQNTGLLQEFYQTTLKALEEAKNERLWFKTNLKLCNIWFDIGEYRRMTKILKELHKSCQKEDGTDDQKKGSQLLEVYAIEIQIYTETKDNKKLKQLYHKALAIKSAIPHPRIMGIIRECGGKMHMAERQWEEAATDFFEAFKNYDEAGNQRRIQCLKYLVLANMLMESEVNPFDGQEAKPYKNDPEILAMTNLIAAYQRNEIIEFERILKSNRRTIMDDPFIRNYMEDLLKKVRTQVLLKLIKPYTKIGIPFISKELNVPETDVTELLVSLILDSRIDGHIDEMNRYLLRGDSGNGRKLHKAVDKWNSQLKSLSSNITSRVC
# B2: COP9 signalosome complex subunit 1 (Arabidopsis thaliana (Mouse-ear cress)), P45432 (parent)
# chain: B1 chain
# partner: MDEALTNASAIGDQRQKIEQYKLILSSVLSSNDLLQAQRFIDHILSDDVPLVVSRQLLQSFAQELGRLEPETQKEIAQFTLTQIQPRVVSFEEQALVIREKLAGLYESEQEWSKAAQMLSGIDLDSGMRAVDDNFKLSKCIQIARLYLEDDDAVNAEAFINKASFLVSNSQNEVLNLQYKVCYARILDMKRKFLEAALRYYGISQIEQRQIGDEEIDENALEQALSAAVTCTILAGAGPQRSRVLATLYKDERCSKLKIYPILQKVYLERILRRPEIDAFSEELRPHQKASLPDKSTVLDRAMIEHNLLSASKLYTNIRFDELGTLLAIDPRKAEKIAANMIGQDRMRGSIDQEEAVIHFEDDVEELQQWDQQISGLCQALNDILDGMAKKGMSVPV
# Variants of: B1
# Settings: with csn2_arath CSN2, Q8W207
row,Variant,effect of a mutation on the interaction
1,G222R,disrupting interaction

# Variants of: B2
# Settings: with csn4_arath CSN4, Q8L5U0
row,Variant,effect of a mutation on the interaction
1,G222R,disrupting interaction
